Values quoted from earlier work as cited in PMC2910557.
pKd: −log10 of the molar value. Read-outs that look alike come from different tables or passages of the source.

Legend:
[1] = molecular target: pHtrII (Natronomonas pharaonis) (UniProt P42259)
[2] = molecular target: pHtrII (Natronomonas pharaonis) (UniProt P42259); remark: listed apart in the source

UniProt P42259, sequence (P42259 whole entry): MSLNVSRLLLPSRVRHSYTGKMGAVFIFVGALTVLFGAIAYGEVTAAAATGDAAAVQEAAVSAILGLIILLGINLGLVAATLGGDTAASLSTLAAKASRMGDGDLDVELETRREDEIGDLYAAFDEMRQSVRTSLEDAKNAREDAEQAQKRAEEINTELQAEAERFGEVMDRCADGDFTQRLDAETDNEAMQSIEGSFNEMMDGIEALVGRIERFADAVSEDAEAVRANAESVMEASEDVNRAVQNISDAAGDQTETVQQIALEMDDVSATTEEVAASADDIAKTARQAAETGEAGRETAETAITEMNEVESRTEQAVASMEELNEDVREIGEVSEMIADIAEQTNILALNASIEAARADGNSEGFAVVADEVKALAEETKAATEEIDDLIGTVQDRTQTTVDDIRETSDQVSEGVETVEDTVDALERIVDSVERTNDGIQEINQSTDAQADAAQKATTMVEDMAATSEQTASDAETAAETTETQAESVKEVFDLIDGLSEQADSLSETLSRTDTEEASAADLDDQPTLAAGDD

pKd [1]	pKd [2]	Substance
5.30	–	ppR M intermediate (ppRM) (from UniProt P42196)
–	6.80	ppR (sensory rhodopsin II) (from UniProt P42196)
